Source: the supplement of paper PMC10567573

B1: FAM98B (parent)
chain: QLDKNSEVYQEVQAMFDTLGIPKS
B2: MED27 (parent)
chain: YNENVYTEDGKLDIWSKSNYQVFQ

Variants of: B1
Assay: protein stability index of a GFP-peptide fusion (GPS, HEK-293T) (PSI 1-6); higher = more stable
Conditions: c terminus: a fixed tail appended
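Further: lentivirally expressed fusions sorted by FACS into six bins by GFP to DsRed ratio, PSI derived from sequencing read proportions per bin multiplied by bin number.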

Protein stability index, by site and new letter:
S6: A 3.6; T 3.53; V 3.47; W 2.32; C 2.77; E 4.21; G 3.56; R 2.88; L 2.66; H 3.35; N 3.29; M 3.23; D 4.67; K 3.23; I 2.69; P 4; Y 2.71; Q 3.14; F 2.63
N5: R 3.55; A 3.56; P 4.37; Q 4.22; F 3.41; L 2.69; W 2.91; E 3.86; M 3.24; Y 2.83; K 3.88; H 3.94; D 4.66; S 3.97; I 2.88; G 3.98; V 3.99; C 3.37; T 4.11
K4: S 3.52; V 2.2; M 2.85; E 3.62; Q 3.03; I 2.56; Y 3.39; P 3; T 3.08; D 3.44; G 3.5; C 3; W 3.04; L 3.39; F 2.93; N 3.67; A 3.04; H 3.43; R 2.95
V12: D 4.19; R 2.8; N 3.53; Q 3.56; K 3.22; P 3.34; F 3.48; A 3; Y 2.56; M 3.29; E 3.5; S 2.77; G 4; T 3.52; W 3.85; H 3.42; I 3.04; L 3.1; C 3.36
L2: I 3.08; Q 4.23; E 5.34; H 4.13; G 4.76; T 4.32; M 3.23; N 4.36; A 4.38; W 4.03; P 4.66; V 3.87; D 4.67; C 4.07; K 4.27; Y 4.08; R 3.58; F 3.51; S 4.63
Y9: F 2.72; A 4.12; S 3.78; W 3.31; T 4.39; R 3.12; Q 3.98; M 3.66; E 4.4; G 3.5; K 3.72; P 3.57; D 4.2; V 3.27; I 3.67; H 3.55; N 3.52; C 3.58; L 3.2
E11: P 2.88; T 3.13; F 2.07; Q 2.3; R 3.38; Y 2.7; I 1.67; K 1.69; N 2.64; G 2.78; C 2.48; W 1.27; M 2.36; H 3.46; V 2.56; S 2.62; D 2.86; L 2.28; A 2.86
E7: I 1.99; P 2.58; L 3.05; F 2.39; D 3.86; A 3.44; K 3.06; V 2.58; G 2.97; S 2.77; Y 2.26; N 3.2; T 2.83; H 2.51; M 3.01; C 2.62; Q 2.81; R 2.87; W 2.13
D3: M 2.16; T 3.06; N 3.47; I 1.95; A 3.46; E 3.87; F 2.73; G 3.73; K 3.45; P 3.11; S 2.93; L 2.06; Q 2.75; W 2.08; V 2.67; R 3.21; H 3.43; Y 2.49; C 2.21
A14: K 3.03; C 3.04; L 2.83; S 3.37; D 3.82; E 3.79; F 2.64; H 3.14; M 2.89; P 3.81; I 3.22; G 2.58; R 2.55; N 4.67; Q 3.61
V8: K 3.07; T 3.81; E 3.79; C 3.02; A 3.85; D 3.62; G 3.12; Y 2.96; L 3.47; M 3.2; H 3.12; F 2.55; R 3.36; W 2.88; Q 3.31; P 3.32; I 2.73; N 3.94; S 3.35
Q10: C 2.63; P 2.73; N 3.07; L 2.18; S 3.58; R 2.29; E 3.57; I 1.39; Y 2.49; D 3.75; M 2.73; T 3.1; W 2.3; A 3.01; F 2; G 3.01; V 2.08; H 2.75; K 2.53
Q13: H 3.03; I 3.19; G 3.09; S 3.24; C 2.88; R 2.59; M 2.73; P 3.27; W 2.24; E 3.34; D 3.82; Y 2.36; K 2.55; L 3.29; V 3.15; F 2.53; N 2.56; A 3.58; T 3.86
Q1: E 2.9; D 4.18; N 3.39; V 2.7; Y 2.62; R 3.39; I 3.23; F 2.2; G 3.31; W 2.88; A 2.91; K 3.2; M 2.79; P 3.53; L 2.55; C 2.52; S 2.96; H 3.64; T 3.18

Variants of: B2
Assay: as above
Conditions: c terminus: a fixed tail appended

Protein stability index of substitutions, site by site:
F23: H 2.87; Q 3.29; P 2.99; N 2.93; D 3.26; C 2.06; A 2.5; W 2.16; I 2.43; G 2.88; M 2.28; S 1.4; V 2.38; L 2.41; Y 2.31; K 3.22; T 3; E 3.02
V22: C 2.56; P 2.66; S 2.5; H 2.27; G 2.24; A 2.3; Q 2.73; N 2.41; M 2.37; Y 2.42; F 2.79; W 1.76; T 2.45; K 2.4; E 2.52; D 2.83; L 2.28; I 2.22; R 2.21
Q24: M 1.62; L 1.96; I 1.6; F 1.74; N 2.46; E 2.44; P 1.81; H 2.17; V 1.43; R 1.86; A 1.94; W 2.21; Y 2.01; K 2.58; D 2.75; G 2.21; T 2.23; S 1.37; C 2.3
Q21: E 2.09; N 2.04; G 1.59; F 1.79; W 2.45; M 2.21; L 2.07; S 1.97; V 1.82; R 2.23; Y 2.02; P 1.98; H 2.64; T 2.76; K 2.44; I 2.44
